This note sets out measurements from paper PMC10139410, “β-Cyclodextrin Polymer-Based Fluorescence Enhancement Strategy via Host–Guest Interaction for Sensitive Assay of SARS-CoV-2”.

In data set [1] the target is T1, SARS-CoV-2 nucleocapsid (N) protein (SARS-CoV-2, UniProt P0DTC9 1-419). The data set can be described thus: circular dichroism; 1 uM each, 30 min at 37 C; 280 nm peak increased; Tris-HCl pH 7.6, 37 C, 30 min; 400 nM aptamer, 240 U/mL Exo I, 1.5 mg/mL beta-CDP; salt not in the material held.
For data set [2], the target named is T1, SARS-CoV-2 nucleocapsid (N) protein. The data set can be described thus: Exo I protection, agarose gel; 600 nM N protein, 400 nM aptamer, 240 U/mL Exo I; labeled form inferred from text on pyrene; Tris-HCl pH 7.6, 37 C, 30 min; 400 nM aptamer, 240 U/mL Exo I, 1.5 mg/mL beta-CDP; salt not in the material held. The following applies: label: 3'-pyrene.

B1: N protein-binding aptamer (ssDNA)
DNA: GCTGGATGTCGCTTACGACAATATTCCTTAGGGGCACCGCTACATTGACACATCCAGC
For the molecule B1, the binding result in data set [1] is “binds”.

B2: Pyrene-labeled N protein binding aptamer (ssDNA)
DNA: GCTGGATGTCGCTTACGACAATATTCCTTAGGGGCACCGCTACATTGACACATCCAGC
modifications: 5'-SH (so in the source); 3'-pyrene
Consider B2, for which the binding result in data set [2] is given as “binds”.
